Positions of bridges follow the written chain, without caps; N, C: chain ends. No end group written: not given here. *: point of attachment. 125I = [125I]*
Experiments:
Assay in all cases: 125I-OxA binding on CHO-S cells expressing the OX1R mutant
OX1R Y211A = molecular target: T1, OX1R Y211A (human, UniProt O43613 1-425)
T1 construct: site-directed mutant (TM5) stably expressed in CHO-S cells; not shown: YFP from vector pEYFP-N2 fused at the C-terminus
T1 chain: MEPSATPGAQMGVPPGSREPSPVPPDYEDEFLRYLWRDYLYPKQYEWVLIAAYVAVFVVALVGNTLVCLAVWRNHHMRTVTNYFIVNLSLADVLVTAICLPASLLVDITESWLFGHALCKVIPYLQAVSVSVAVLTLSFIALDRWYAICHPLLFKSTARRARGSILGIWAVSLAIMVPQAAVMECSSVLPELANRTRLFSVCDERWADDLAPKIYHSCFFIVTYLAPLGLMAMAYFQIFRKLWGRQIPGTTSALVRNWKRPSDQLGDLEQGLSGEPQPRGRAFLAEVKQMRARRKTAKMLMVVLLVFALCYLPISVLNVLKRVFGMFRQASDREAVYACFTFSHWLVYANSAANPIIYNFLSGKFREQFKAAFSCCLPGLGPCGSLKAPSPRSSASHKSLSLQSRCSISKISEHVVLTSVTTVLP
Protocol: (§1) CHO—S cells expressing recombinant native or mutated OX1R were grown as previously described (El Firar et al., 2009) and maintained at 37° C. in a humidified 5% CO₂/air incubator. ¹²⁵I-orexia-A (74 TBq/mmol) was prepared as previously described (El Firar et al., 2009). […] Free peptides were removed by 2 cell washing cycles with PBS. […] Data were analyzed using the GraphPad software (http://www.graphpad.com).
(§2) All residues of OX1R fulfilling this condition were mutated to alanine by site-directed mutagenesis (Table II).

OX1R Y124A = molecular target: T2, OX1R Y124A (human, UniProt O43613 1-425)
T2 construct: site-directed mutant (TM3) stably expressed in CHO-S cells; not shown: YFP from vector pEYFP-N2 fused at the C-terminus
T2 chain: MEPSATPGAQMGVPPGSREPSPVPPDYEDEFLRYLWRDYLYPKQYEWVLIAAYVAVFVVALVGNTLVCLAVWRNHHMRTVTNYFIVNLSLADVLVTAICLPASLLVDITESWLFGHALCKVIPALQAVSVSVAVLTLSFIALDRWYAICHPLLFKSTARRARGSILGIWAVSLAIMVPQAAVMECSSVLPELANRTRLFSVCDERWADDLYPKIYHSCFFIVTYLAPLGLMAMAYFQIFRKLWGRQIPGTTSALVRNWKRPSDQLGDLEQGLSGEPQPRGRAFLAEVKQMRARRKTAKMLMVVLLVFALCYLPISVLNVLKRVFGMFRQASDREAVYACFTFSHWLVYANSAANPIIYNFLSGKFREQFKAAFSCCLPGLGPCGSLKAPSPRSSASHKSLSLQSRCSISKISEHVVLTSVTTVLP
Protocol: as §1, §2

OX1R F340A = molecular target: T3, OX1R F340A (human, UniProt O43613 1-425)
T3 construct: site-directed mutant (TM7) stably expressed in CHO-S cells; not shown: YFP from vector pEYFP-N2 fused at the C-terminus
T3 chain: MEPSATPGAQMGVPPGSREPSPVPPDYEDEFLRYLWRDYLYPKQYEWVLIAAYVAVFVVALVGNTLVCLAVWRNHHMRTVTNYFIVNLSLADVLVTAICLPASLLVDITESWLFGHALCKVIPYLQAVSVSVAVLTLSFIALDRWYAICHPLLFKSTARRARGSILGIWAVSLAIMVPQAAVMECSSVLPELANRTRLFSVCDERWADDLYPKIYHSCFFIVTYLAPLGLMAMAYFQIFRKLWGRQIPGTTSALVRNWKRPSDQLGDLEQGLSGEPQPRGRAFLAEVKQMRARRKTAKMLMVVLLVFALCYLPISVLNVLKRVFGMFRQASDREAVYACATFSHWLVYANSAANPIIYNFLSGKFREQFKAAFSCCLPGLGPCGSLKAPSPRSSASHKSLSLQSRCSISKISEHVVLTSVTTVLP
Protocol: as §1, §2

OX1R F220A = molecular target: T4, OX1R F220A (human, UniProt O43613 1-425)
T4 construct: site-directed mutant (TM5) stably expressed in CHO-S cells; not shown: YFP from vector pEYFP-N2 fused at the C-terminus
T4 chain: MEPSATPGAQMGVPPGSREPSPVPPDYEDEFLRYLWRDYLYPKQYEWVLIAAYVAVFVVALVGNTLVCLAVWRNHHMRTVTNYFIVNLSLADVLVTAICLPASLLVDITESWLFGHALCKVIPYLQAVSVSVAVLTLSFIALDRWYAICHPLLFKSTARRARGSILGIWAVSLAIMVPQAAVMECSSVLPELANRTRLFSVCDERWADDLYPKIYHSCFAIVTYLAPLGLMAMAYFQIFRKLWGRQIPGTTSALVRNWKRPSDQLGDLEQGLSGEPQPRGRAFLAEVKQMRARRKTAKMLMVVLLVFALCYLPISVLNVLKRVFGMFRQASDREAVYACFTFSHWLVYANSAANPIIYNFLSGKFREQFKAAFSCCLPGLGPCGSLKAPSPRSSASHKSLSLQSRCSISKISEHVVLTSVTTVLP
Protocol: as §1, §2

OX1R T341A = molecular target: T5, OX1R T341A (human, UniProt O43613 1-425)
T5 construct: site-directed mutant (TM7) stably expressed in CHO-S cells; not shown: YFP from vector pEYFP-N2 fused at the C-terminus
T5 chain: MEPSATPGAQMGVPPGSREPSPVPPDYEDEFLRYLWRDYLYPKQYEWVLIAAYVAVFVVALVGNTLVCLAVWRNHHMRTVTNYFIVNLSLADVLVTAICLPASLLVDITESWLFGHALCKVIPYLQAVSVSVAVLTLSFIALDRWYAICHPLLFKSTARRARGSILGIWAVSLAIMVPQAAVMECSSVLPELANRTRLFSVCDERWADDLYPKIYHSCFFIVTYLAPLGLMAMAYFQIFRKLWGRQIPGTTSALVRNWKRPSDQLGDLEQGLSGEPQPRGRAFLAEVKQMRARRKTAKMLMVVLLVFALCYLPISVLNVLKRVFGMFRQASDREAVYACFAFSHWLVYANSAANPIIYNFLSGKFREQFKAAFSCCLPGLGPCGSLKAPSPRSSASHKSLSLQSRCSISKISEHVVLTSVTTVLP
Protocol: as §1, §2

Measured: binding result

B1: 125I-orexin-A (peptide, UniProt O43612 34-66, looked up)
peptide: QPLPDCCRQKTCSCRLY(125I)ELLHGAGNHAAGILTL
modifications: disulfide 6-12, 7-14; not fully specified (residue 1, C-terminus)
notes: mature; also called OxA
binds: all assays above

Source: patent US20180044393A1 (INSERM INSTITUT NATIONAL DE LA SANT ET DE LA RECHERCHE M …, published 2018)
